What is called Kd is the equilibrium constant for the complex coming apart. A word on the koff: it is the rate constant with which the complex falls apart. A word on the kon: it is the second-order rate constant of association. Usually EC50 stands for the midpoint of the concentration-response curve.

For assay [1], the target named is T1, recombinant human domain 1-3His6 of the cation-independent mannose-6-phosphate receptor (human, UniProt P11717 41-467).
T1 construct: Biotinylated (NHS-PEG4-biotin) for BLI; Glycosylated; also called hDom1-3His6; hCI-M6PRD1-D3
The assay can be described thus: BLI exp 1, dissoc pH 5. As to the method: (§1) For each of the 11 anti-CI-M6PR VHHs, a biolayer interferometry (BLI) experiment was performed in which the hDom₁₋₃His₆ was biotinylated and coupled to streptavidin biosensor tips. Afterwards, the tips were incubated with serially diluted VHHs during the association phase and dissociation was performed at pH 7.4. Similarly, dissociation was performed at pH 7.0, pH 6.0 and pH 5.0 as well after regeneration of the biosensor tips. […] The anti-CI-M6PR antibody (clone 2G11) and GBP were used as positive and negative controls, respectively.
(§2) Analysis of the binding kinetics was performed using an Octet Red96 (FortéBio) device with Streptavidin SA Biosensor tips (VWR 733-2145). Therefore, 1 mL of human domain₁₋₃His₆ (0.5 mg/mL in 50 mM MES, 150 mM NaCl, pH 6.5) was incubated at room temperature for 30 minutes with EZ-Link™ NHS-PEG4-Biotin (1 mg) (Thermo Fischer A39259) and NaHCO₃ (100 mM). Biotinylated human domain₁₋₃His₆ was purified using a Zeba spin desalting Column™ (7K MWCO, 2 mL, Thermo Fischer 89890) and 1 μg/mL was used for immobilization on the Streptavidin SA Biosensor tips. The loaded tips were dipped into a particular anti-CI-M6PR VHH solution, serially diluted in kinetics buffer (0.2M NaH₂PO₄, 0.1M Na⁺ citrate, 0.01% BSA, 0.002% Tween20, pH 7.4). This was followed by dissociation of the particular anti-CI-M6PR VHH in kinetics buffer of pH 7.4, followed by regeneration in Glycine (10 mM, pH 3) and neutralisation. Same cycle was repeated but the dissociation was performed at pH 7.0, 6.0, 5.0, 4.5 and 4.0. A reference well and reference sensors were subtracted from ligand sensors afterwards and Savitsky-Golay filtering was applied on the data. Fitting of the data was performed using a 1:1 model, grouped per pH of dissociation.

Assay [2] concerns the target T1, recombinant human domain 1-3His6 of the …. The assay can be described thus: ELISA on coated antigen, 1st of 2 repeats. As to the method: FIGS. 4A-4B. Affinity of anti-CI-M6PR VHHs for recombinant human CI-M6PR Domain 1-3His₆ determined by ELISA. A & B. Measurements for each of the 11 anti-CI-M6PR VHHs in serial dilution binding to the coated human CI-M6PR Domain 1-3His₆ antigen. Detection was performed using an anti-VHH antibody coupled to HRP, and measured as the absorbance of the TMB substrate at 450 nm, correlating to the amount of bound VHH as plotted at the Y-axis. The Log₁₀ concentrations of the serially diluted VHHs were plotted at the X-axis. […] A & B represent replicates but using a different concentration of human CI-M6PR Domain 1-3His₆ (in (FIG. 4A): 0-0.75 μM and in (FIG. 4B): 0-1 μM).
We evaluated the affinity of the VHHs against the hDom₁₋₃His₆ using ELISA. Coated hDom₁₋₃His₆ was incubated with serially diluted VHH that was afterwards detected using an anti-VHH antibody, coupled to HRP.

Assay [3] shares this target. The assay can be described thus: BLI exp 2, dissoc pH 5. As for the experimental part: as §1
Analysis of the binding kinetics was performed using an Octet Red96 (FortéBio) device with Streptavidin SA Biosensor tips (VWR, 733-2145). To this end, 1 mL of hCI-M6PR_D1-D3 (0.5 mg/mL in 50 mM MES, 150 mM NaCl, pH 6.5) was incubated at room temperature for 30 minutes with a two-fold molar excesses of EZ-Link™ NHS-PEG₄-Biotin (Thermo Fischer, A39259) and NaHCO₃ (100 mM, pH 8.3). Biotinylated hCIMPR_D1-D3 was purified using a Zeba spin desalting column (Thermo Fischer, 89890) and protein concentration was calculated by measuring the absorbance at 280 nm (extinction coefficient 50320 M¹ cm⁻¹). Two-fold biotin-labelled antigen was loaded on the tips (2.5 μg/mL) and subsequently dipped into a particular anti-CI-M6PR VHH-containing solution (ranging from 0-100 nM). Serial VHH dilutions were made in kinetics buffer (0.2 M Na₂HPO₄, 0.1 M Na⁺ citrate, 0.01% BSA, 0.002% Tween20, pH 7.4). After association (100 sec), dissociation was conducted (500 sec) for each anti-CI-M6PR VHH in the kinetics buffer, followed by biosensor regeneration in glycine (10 mM, pH 3) and neutralisation. The same cycle was repeated with dissociation performed in kinetics buffer of pH 7.0, 6.5, 6.0, 5.5, and 5.0.
A reference well and reference sensors were subtracted from ligand sensors afterwards and Savitsky-Golay filtering was applied on the data. Fitting of the data was performed using a 1:1 model, grouped per dissociation pH.

Assay [4] shares this target. Briefly: BLI exp 2, dissoc pH 7.4. As to the method:
as §1, §2

Assay [5] concerns the target T2, recombinant mouse domain 1-3His6 of CI-M6PR (mouse, UniProt Q07113 36-418).
T2 construct: Genbank NM_010515.2); Range includes the signal peptide; also called mDom1-3His6; mCI-M6PRD1-D3
Briefly: ELISA: coated mouse CI-M6PR Domain 1-3His6, serially diluted VHH, anti-VHH-HRP, TMB, Abs 450 nm; sigmoidal regression [table at the right]. As for the experimental part: FIGS. 5A-5B. Affinity of anti-CI-M6PR VHHs for recombinant mouse CI-M6PR Domain 1-3His₆ determined by ELISA. (FIG. 5A) Measurement for each of the 11 anti-CI-M6PR VHHs in serial dilution binding to the coated mouse antigen. Detection was performed using an anti-VHH antibody coupled to HRP, and measured as the absorbance of the TMB substrate at 450 nm, correlating to the amount of bound VHH as plotted at the Y-axis. The Log₁₀ concentrations of the serially diluted VHHs were plotted at the X-axis.
To evaluate the cross-reactivity of the anti-CI-M6PR nanobodies between the human and mouse CI-M6PR domain 1-3His₆ antigen, ELISA was performed with the eleven serially diluted anti-CI-M6PR nanobodies. […] By performing sigmoidal regression on the derived absorbance curves, half-maximal effective concentration (EC₅₀) values of each VHH were acquired, representing the required concentration to occupy 50% of the coated antigen. As a negative control, GBP was included in the assay.
For orientation: An ELISA detects its analyte on a solid surface through an enzyme-linked reagent.

T2 sequence (Q07113 other isoform, or with tags, fused parts or gaps): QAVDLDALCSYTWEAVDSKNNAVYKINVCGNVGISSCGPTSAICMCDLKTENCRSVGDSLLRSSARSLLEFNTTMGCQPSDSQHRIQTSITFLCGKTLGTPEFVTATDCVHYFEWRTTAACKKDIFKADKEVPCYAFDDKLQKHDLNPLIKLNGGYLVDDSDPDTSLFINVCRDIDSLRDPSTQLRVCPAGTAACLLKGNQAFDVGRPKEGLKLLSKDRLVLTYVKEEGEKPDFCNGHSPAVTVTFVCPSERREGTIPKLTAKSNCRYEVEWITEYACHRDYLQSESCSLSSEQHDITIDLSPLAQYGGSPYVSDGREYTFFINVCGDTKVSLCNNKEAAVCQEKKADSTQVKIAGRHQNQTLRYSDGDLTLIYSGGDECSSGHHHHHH

B1: anti-CI-M6PR VHH11 (VHH)
VHH: QVQLQESGGGLVQAGDSLKLSCTASGPTFSEITGGWFRQVPGKEREFVASISSTGITTYYTDSVKGRFTVSRDNAKNTMYLQMNSLKPEDTGVYYCAARSTSRSIAITVGYDYWGQGTQVTVSS
notes: His6-tagged; made in Pichia pastoris
Take B1: the equilibrium dissociation constant (Kd) in assay [1] was found to be 113 nM; in assay [4], 51 nM. Moreover, the figures for the koff in assay [1], in assay [3] and in assay [4] were 0.0253 s⁻¹, 0.0253 s⁻¹ and 0.00391 s⁻¹, respectively. The figures for the kon in assay [1], in assay [3] and in assay [4] were 225000 M⁻¹ s⁻¹, 225000 M⁻¹ s⁻¹ and 76700 M⁻¹ s⁻¹, respectively. The figures for the EC50 in assay [2] and in assay [5] were 0.249 nM and 330 nM, respectively.

Values taken from patent publication US20250263490A1 (VIB VZW, published 2025).
